The text below walks through data of article PMC6931119.

The assay addresses microtubules (human (endogenous in HEK293T)) (UniProt P68363). In words: co-sedimentation; microtubule co-sedimentation assay of HEK293T cells with overexpressed Climp63-HA and GFP or GFP-Calu1; 37°C; P pellet = microtubule fraction, S supernatant = free tubulin fraction.
Sequence of UniProt P68363 (P68363 whole entry, chain 1 of 2): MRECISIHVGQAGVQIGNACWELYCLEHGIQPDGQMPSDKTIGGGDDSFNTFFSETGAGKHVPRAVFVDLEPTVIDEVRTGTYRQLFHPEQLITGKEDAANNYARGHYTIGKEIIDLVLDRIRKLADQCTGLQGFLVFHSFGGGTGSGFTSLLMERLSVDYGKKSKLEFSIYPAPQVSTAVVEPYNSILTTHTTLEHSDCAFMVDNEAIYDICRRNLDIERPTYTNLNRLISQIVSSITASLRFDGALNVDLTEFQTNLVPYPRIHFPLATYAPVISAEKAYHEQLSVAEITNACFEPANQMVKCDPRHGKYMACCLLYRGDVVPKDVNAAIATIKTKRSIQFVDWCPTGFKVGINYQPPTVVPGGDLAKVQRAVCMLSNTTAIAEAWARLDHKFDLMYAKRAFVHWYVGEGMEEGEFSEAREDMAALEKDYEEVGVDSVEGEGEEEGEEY
Sequence of UniProt P68363 (P07437 whole entry, chain 2 of 2, further chain): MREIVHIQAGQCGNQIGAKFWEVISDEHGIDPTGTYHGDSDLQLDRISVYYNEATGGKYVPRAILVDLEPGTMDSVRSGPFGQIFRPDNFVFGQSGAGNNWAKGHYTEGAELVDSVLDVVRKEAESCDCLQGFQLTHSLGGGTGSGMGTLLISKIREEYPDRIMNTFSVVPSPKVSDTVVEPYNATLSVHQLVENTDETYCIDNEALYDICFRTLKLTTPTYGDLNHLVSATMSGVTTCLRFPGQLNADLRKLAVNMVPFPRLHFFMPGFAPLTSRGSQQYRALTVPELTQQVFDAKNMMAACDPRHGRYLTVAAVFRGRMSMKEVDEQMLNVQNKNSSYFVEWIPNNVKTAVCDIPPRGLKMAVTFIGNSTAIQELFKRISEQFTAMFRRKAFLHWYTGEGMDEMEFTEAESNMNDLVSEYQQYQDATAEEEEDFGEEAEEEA

Sequence of Climp63-HA (Q07065 whole entry): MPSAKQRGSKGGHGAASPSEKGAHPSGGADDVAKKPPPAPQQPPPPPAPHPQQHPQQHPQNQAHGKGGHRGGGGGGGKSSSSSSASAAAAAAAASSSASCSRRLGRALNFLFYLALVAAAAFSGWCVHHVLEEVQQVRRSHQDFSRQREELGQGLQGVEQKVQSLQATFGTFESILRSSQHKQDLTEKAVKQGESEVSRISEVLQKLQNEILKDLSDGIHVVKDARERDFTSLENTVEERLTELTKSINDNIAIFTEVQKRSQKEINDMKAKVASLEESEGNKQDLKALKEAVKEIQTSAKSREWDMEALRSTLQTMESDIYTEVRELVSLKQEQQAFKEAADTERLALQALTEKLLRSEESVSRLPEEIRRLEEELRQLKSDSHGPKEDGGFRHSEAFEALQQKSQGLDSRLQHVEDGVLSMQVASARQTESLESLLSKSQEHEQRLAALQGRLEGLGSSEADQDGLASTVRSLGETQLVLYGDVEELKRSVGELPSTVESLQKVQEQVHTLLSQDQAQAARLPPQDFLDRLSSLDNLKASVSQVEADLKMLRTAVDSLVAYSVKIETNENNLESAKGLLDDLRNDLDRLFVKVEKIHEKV

For “Climp63-HA (from UniProt Q07065 1-602) (natural protein)”, the percent of Climp63 in the pellet (microtubule fraction) at 37°C, GFP overexpressed is 60% and the percent of Climp63 in the pellet (microtubule fraction) at 37°C, GFP-Calu1 overexpressed is 36%.
